Source: the MegaScale stability set (Tsuboyama et al. 2023)

B1: EHEE_rd2_0191 (parent)
chain: TTEYTFTDDEEARRAIEELKKRGLTFRYEKHGTTWRVRVD

Variants of: B1
Test: folding stability dG (cDNA display proteolysis); higher = more stable
Conditions: PBS, room temperature

Variant	folding stability dG [kcal/mol]
TTEYTFTDDEEARRAIEELKKRGLTFRYENHGTTWRVRVD [K30N]	0.931
TTEYTFTDDEEARRAIEELKKRGLTFRYELHGTTWRVRVD [K30L]	1.54
TTEYTFTDDEEARRAIEELKKRGLTFRYEYHGTTWRVRVD [K30Y]	1.21
TTEYTFTDDEEARRAIEELKKRGLTFRYEEHGTTWRVRVD [K30E]	-0.015
TTEYTFTDDEEARRAIEELKKRGLTFRYEHHGTTWRVRVD [K30H]	1.51
TTEYTFTDDEEARRAIEELKKRGLTFRYEFHGTTWRVRVD [K30F]	1.22
TTEYTFTDDEEARRAIEELKKRGLTFRYEIHGTTWRVRVD [K30I]	1.86
TTEYTFTDDEEARRAIEELKKRGLTFRYEWHGTTWRVRVD [K30W]	0.819
TTEYTFTDDEEARRAIEELKKRGLTFRYEQHGTTWRVRVD [K30Q]	1.54
TTEYTFTDDEEARRAIEELKKRGLTFRYEMHGTTWRVRVD [K30M]	1.43
TTEYTFTDDEEARRAIEELKKRGLTFRYEAHGTTWRVRVD [K30A]	0.56
TTEYTFTDDEEARRAIEELKKRGLTFRYERHGTTWRVRVD [K30R]	1.99
TTEYTFTDDEEARRAIEELKKRGLTFRYEVHGTTWRVRVD [K30V]	1.82
TTEYTFTDDEEARRAIEELKKRGLTFRYESHGTTWRVRVD [K30S]	0.569
TTEYTFTDDEEARRAIEELKKRGLTFRYETHGTTWRVRVD [K30T]	0.892
TTEYTFTDDEEARRAIEELKKRGLRFRYEKHGTTWRVRVD [T25R]	2.27
TTEYTFTDDEEARRAIEELKKRGLSFRYEKHGTTWRVRVD [T25S]	2.29
TTEYTFTDDEEARRAIEELKKRGLLFRYEKHGTTWRVRVD [T25L]	1.97
TTEYTFTDDEEARRAIEELKKRGLGFRYEKHGTTWRVRVD [T25G]	1.49
TTEYTFTDDEEARRAIEELKKRGLFFRYEKHGTTWRVRVD [T25F]	2.15
TTEYTFTDDEEARRAIEELKKRGLYFRYEKHGTTWRVRVD [T25Y]	2.07
TTEYTFTDDEEARRAIEELKKRGLKFRYEKHGTTWRVRVD [T25K]	2.25
TTEYTFTDDEEARRAIEELKKRGLHFRYEKHGTTWRVRVD [T25H]	2.25
TTEYTFTDDEEARRAIEELKKRGLPFRYEKHGTTWRVRVD [T25P]	1.84
TTEYTFTDDEEARRAIEELKKRGLMFRYEKHGTTWRVRVD [T25M]	1.95

Variant	folding stability dG [kcal/mol]
TTEYTFTDDEEARRAIEELKKRGLNFRYEKHGTTWRVRVD [T25N]	2.12
TTEYTFTDDEEARRAIEELKKRGLVFRYEKHGTTWRVRVD [T25V]	2.08
TTEYTFTDDEEARRAIEELKKRGLIFRYEKHGTTWRVRVD [T25I]	2.14
TTEYTFTDDEEARRAIEELKKRGLQFRYEKHGTTWRVRVD [T25Q]	2.01
TTEYTFTDDEEARRAIEELKKRGLWFRYEKHGTTWRVRVD [T25W]	2.28
TTEYTFTDDEEARRAIEELKKRGLTFRYCKHGTTWRVRVD [E29C]	2.56
TTEYTFTDDEEARRAIEELKKRGLTFRYVKHGTTWRVRVD [E29V]	2.07
TTEYTFTDDEEARRAIEELKKRGLTFRYLKHGTTWRVRVD [E29L]	1.71
TTEYTFTDDEEARRAIEELKKRGLTFRYQKHGTTWRVRVD [E29Q]	1.75
TTEYTFTDDEEARRAIEELKKRGLTFRYGKHGTTWRVRVD [E29G]	1.04
TTEYTFTDDEEARRAIEELKKRGLTFRYYKHGTTWRVRVD [E29Y]	2.44
TTEYTFTDDEEARRAIEELKKRGLTFRYMKHGTTWRVRVD [E29M]	1.94
TTEYTFTDDEEARRAIEELKKRGLTFRYNKHGTTWRVRVD [E29N]	1.38
TTEYTFTDDEEARRAIEELKKRGLTFRYFKHGTTWRVRVD [E29F]	2.35
TTEYTFTDDEEARRAIEELKKRGLTFRYSKHGTTWRVRVD [E29S]	2.12
TTEYTFTDDEEARRAIEELKKRGLTFRYTKHGTTWRVRVD [E29T]	2.21
TTEYTFTDDEEARRAIEELKKRGLTFRYIKHGTTWRVRVD [E29I]	2.13
TTEYTFTDDEEARRAIEELKKRGLTFRYRKHGTTWRVRVD [E29R]	1.77
TTEYTFTDDEEARRAIEELKKRGLTFRYAKHGTTWRVRVD [E29A]	1.75
TTEYTFTDDEEARRAIEELKKRGLTFRYKKHGTTWRVRVD [E29K]	1.72
TTEYTFTDDEEARRAIEELKKRGLTFRYWKHGTTWRVRVD [E29W]	3.04
TTEYTFTDDEEARRAIEELKKRGLTFRYHKHGTTWRVRVD [E29H]	1.83
TTEYTFTDDEEARRAIEELKKRGLTFRYDKHGTTWRVRVD [E29D]	1.7
TTEYTFTDDEEARRAIEELKKRGLTFRWEKHGTTWRVRVD [Y28W]	2.2
TTEYTFTDDEEARRAIEELKKRGLTFRREKHGTTWRVRVD [Y28R]	-0.634

Variant	folding stability dG [kcal/mol]
TTEYTFTDDEEARRAIEELKKRGLTFRKEKHGTTWRVRVD [Y28K]	0.466
TTEYTFTDDEEARRAIEELKKRGLTFRLEKHGTTWRVRVD [Y28L]	2.15
TTEYTFTDDEEARRAIEELKKRGLTFRDEKHGTTWRVRVD [Y28D]	-0.987
TTEYTFTDDEEARRAIEELKKRGLTFRVEKHGTTWRVRVD [Y28V]	3.23
TTEYTFTDDEEARRAIEELKKRGLTFRAEKHGTTWRVRVD [Y28A]	2.4
TTEYTFTDDEEARRAIEELKKRGLTFRCEKHGTTWRVRVD [Y28C]	2.52
TTEYTFTDDEEARRAIEELKKRGLTFRFEKHGTTWRVRVD [Y28F]	2.06
TTEYTFTDDEEARRAIEELKKRGLTFRGEKHGTTWRVRVD [Y28G]	0.032
TTEYTFTDDEEARRAIEELKKRGLTFRSEKHGTTWRVRVD [Y28S]	1.34
TTEYTFTDDEEARRAIEELKKRGLTFREEKHGTTWRVRVD [Y28E]	0.447
TTEYTFTDDEEARRAIEELKKRGLTFRQEKHGTTWRVRVD [Y28Q]	0.764
TTEYTFTDDEEARRAIEELKKRGLTFRTEKHGTTWRVRVD [Y28T]	1.78
TTEYTFTDDEEARRAIEELKKRGLTFRMEKHGTTWRVRVD [Y28M]	1.86
TTEYTFTDDEEARRAIEELKKRGLTFRHEKHGTTWRVRVD [Y28H]	0.592
TTEYTFTDDEEARRAIEELKKRGLTFRIEKHGTTWRVRVD [Y28I]	2.95
TTEYTFTDDEEARRAIEELKKRGLTVRYEKHGTTWRVRVD [F26V]	2.73
TTEYTFTDDEEARRAIEELKKRGLTARYEKHGTTWRVRVD [F26A]	0.99
TTEYTFTDDEEARRAIEELKKRGLTPRYEKHGTTWRVRVD [F26P]	1.41
TTEYTFTDDEEARRAIEELKKRGLTLRYEKHGTTWRVRVD [F26L]	1.61
TTEYTFTDDEEARRAIEELKKRGLTYRYEKHGTTWRVRVD [F26Y]	1.73
TTEYTFTDDEEARRAIEELKKRGLTWRYEKHGTTWRVRVD [F26W]	0.681
TTEYTFTDDEEARRAIEELKKRGLTTRYEKHGTTWRVRVD [F26T]	0.447
TTEYTFTDDEEARRAIEELKKRGLTMRYEKHGTTWRVRVD [F26M]	0.795
TTEYTFTDDEEARRAIEELKKRGLTIRYEKHGTTWRVRVD [F26I]	2.04
TTEYTFTDDEEARRAIEELKKRGLTHRYEKHGTTWRVRVD [F26H]	0.04

Variant	folding stability dG [kcal/mol]
TTEYTFTDDEEARRAIEELKKRGLTFRYEKHRTTWRVRVD [G32R]	0.119
TTEYTFTDDEEARRAIEELKKRGLTFRYEKHVTTWRVRVD [G32V]	-0.186
TTEYTFTDDEEARRAIEELKKRGLTFRYEKHNTTWRVRVD [G32N]	1.1
TTEYTFTDDEEARRAIEELKKRGLTFRYEKHKTTWRVRVD [G32K]	0.641
TTEYTFTDDEEARRAIEELKKRGLTFRYEKHETTWRVRVD [G32E]	1.35
TTEYTFTDDEEARRAIEELKKRGLTFRYEKHWTTWRVRVD [G32W]	-0.3
TTEYTFTDDEEARRAIEELKKRGLTFRYEKHATTWRVRVD [G32A]	0.777
TTEYTFTDDEEARRAIEELKKRGLTFRYEKHITTWRVRVD [G32I]	-0.154
TTEYTFTDDEEARRAIEELKKRGLTFRYEKHQTTWRVRVD [G32Q]	0.889
TTEYTFTDDEEARRAIEELKKRGLTFRYEKHSTTWRVRVD [G32S]	0.389
TTEYTFTDDEEARRAIEELKKRGLTFRYEKHHTTWRVRVD [G32H]	0.696
TTEYTFTDDEEARRAIEELKKRGLTFRYEKHTTTWRVRVD [G32T]	-0.068
TTEYTFTDDEEARRAIEELKKRGLTFRYEKHFTTWRVRVD [G32F]	0.367
TTEYTFTDDEEARRAIEELKKRGLTFRYEKHLTTWRVRVD [G32L]	0.796
TTEYTFTDDEEARRAIEELKKRGLTFRYEKHMTTWRVRVD [G32M]	0.592
TTEYTFTDDEEARRAIEELKKRGLTFRYEKHDTTWRVRVD [G32D]	1.34
TTEYTFTDDEEARRAIEELKKRGLTFHYEKHGTTWRVRVD [R27H]	2.39
TTEYTFTDDEEARRAIEELKKRGLTFKYEKHGTTWRVRVD [R27K]	2
TTEYTFTDDEEARRAIEELKKRGLTFEYEKHGTTWRVRVD [R27E]	2.02
TTEYTFTDDEEARRAIEELKKRGLTFWYEKHGTTWRVRVD [R27W]	2.77
TTEYTFTDDEEARRAIEELKKRGLTFMYEKHGTTWRVRVD [R27M]	2.03
TTEYTFTDDEEARRAIEELKKRGLTFYYEKHGTTWRVRVD [R27Y]	2.42
TTEYTFTDDEEARRAIEELKKRGLTFQYEKHGTTWRVRVD [R27Q]	2.25
TTEYTFTDDEEARRAIEELKKRGLTFNYEKHGTTWRVRVD [R27N]	1.91
TTEYTFTDDEEARRAIEELKKRGLTFGYEKHGTTWRVRVD [R27G]	1.37

Variant	folding stability dG [kcal/mol]
TTEYTFTDDEEARRAIEELKKRGLTFVYEKHGTTWRVRVD [R27V]	2.51
TTEYTFTDDEEARRAIEELKKRGLTFAYEKHGTTWRVRVD [R27A]	2.1
TTEYTFTDDEEARRAIEELKKRGLTFLYEKHGTTWRVRVD [R27L]	1.74
TTEYTFTDDEEARRAIEELKKRGLTFIYEKHGTTWRVRVD [R27I]	2.29
TTEYTFTDDEEARRAIEELKKRGLTFFYEKHGTTWRVRVD [R27F]	2.29
TTEYTFTDDEEARRAIEELKKRGLTFTYEKHGTTWRVRVD [R27T]	3.02
TTEYTFTDDEEARRAIEELKKRGLTFDYEKHGTTWRVRVD [R27D]	1.62
TTEYTFTDDEEARRAIEELKKRGLTFSYEKHGTTWRVRVD [R27S]	2.73
TTEYTFTDDEEARRAIEELKKRGLTFRYEKTGTTWRVRVD [H31T]	2.29
TTEYTFTDDEEARRAIEELKKRGLTFRYEKFGTTWRVRVD [H31F]	2.15
TTEYTFTDDEEARRAIEELKKRGLTFRYEKNGTTWRVRVD [H31N]	2.21
TTEYTFTDDEEARRAIEELKKRGLTFRYEKQGTTWRVRVD [H31Q]	2.21
TTEYTFTDDEEARRAIEELKKRGLTFRYEKWGTTWRVRVD [H31W]	1.89
TTEYTFTDDEEARRAIEELKKRGLTFRYEKSGTTWRVRVD [H31S]	2.1
TTEYTFTDDEEARRAIEELKKRGLTFRYEKAGTTWRVRVD [H31A]	1.75
TTEYTFTDDEEARRAIEELKKRGLTFRYEKYGTTWRVRVD [H31Y]	2.04
TTEYTFTDDEEARRAIEELKKRGLTFRYEKVGTTWRVRVD [H31V]	2.56
TTEYTFTDDEEARRAIEELKKRGLTFRYEKRGTTWRVRVD [H31R]	1.99
TTEYTFTDDEEARRAIEELKKRGLTFRYEKGGTTWRVRVD [H31G]	0.625
TTEYTFTDDEEARRAIEELKKRGLTFRYEKIGTTWRVRVD [H31I]	2.81
TTEYTFTDDEEARRAIEELKKRGLTFRYEKEGTTWRVRVD [H31E]	2.24
TTEYTFTDDEEARRAIEELKKRGLTFRYEKDGTTWRVRVD [H31D]	2.39
TTEYTFTDDEEARRAIEELKKRGLTFRYEKMGTTWRVRVD [H31M]	2.18
TTEYTFTDDEEARRAIEELKKRGLTFRYEKLGTTWRVRVD [H31L]	2.29
TTEYTFTDDEEARRAIEELKKRGLTFRYEKKGTTWRVRVD [H31K]	2.06
